Measured values reported in paper PMC9424243, “Structure of a nucleosome-bound MuvB transcription factor complex reveals DNA remodelling” (Nature Communications, 2022).

T1: B-MYB^FL(1–700) (human, UniProt P10244 1-700)
T1 construct: B-MYB, human, residues 1-700 (B-MYB^FL), codon optimised CDS; source: Hi-5 insect cells, expressed separately, purified separately as per the MuvB protocol
T1 sequence (looked up): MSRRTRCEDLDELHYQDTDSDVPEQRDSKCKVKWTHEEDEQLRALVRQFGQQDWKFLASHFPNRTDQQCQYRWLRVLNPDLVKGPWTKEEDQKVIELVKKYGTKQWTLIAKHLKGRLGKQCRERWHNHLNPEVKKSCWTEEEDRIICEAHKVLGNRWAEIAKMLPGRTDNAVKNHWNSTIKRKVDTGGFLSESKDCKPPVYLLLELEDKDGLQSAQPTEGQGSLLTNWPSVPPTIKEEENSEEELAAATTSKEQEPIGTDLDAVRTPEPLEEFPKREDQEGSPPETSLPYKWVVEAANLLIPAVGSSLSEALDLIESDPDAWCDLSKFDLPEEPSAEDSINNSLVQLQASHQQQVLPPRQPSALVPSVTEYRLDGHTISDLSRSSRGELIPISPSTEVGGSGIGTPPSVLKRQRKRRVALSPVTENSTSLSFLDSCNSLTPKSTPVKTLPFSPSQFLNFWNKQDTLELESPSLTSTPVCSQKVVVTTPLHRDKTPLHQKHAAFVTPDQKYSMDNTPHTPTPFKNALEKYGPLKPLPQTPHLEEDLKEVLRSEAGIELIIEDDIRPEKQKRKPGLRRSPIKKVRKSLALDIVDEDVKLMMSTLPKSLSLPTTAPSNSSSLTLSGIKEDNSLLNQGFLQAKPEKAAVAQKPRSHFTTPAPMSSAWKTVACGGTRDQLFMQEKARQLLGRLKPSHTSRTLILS

B1: LIN52^FL(1–116) (natural protein, human, UniProt Q52LA3 1-112, looked up)
chain: MASPTDGTDLEASLLSFEKLDRASPDLWPEQLPGVAEFAASFKSPITSSPPKWMAEIERDDIDMLKELGSLTTANLMEKVRGLQNLAYQLGLDESREMTRGKFLNILEKPKK
notes: LIN52, human, residues 1-116 (LIN52^FL), codon optimised CDS; source: Hi-5 insect cells co-infected with MuvB baculoviruses; purified as part of the complex (Strep-Tactin, 3C protease, SEC)
B2: LIN9^FL(1–542) (natural protein, human, UniProt Q5TKA1 1-542, looked up)
chain: MAELDQLPDESSSAKALVSLKEGSLSNTWNEKYSSLQKTPVWKGRNTSSAVEMPFRNSKRSRLFSDEDDRQINTRSPKRNQRVAMVPQKFTATMSTPDKKASQKIGFRLRNLLKLPKAHKWCIYEWFYSNIDKPLFEGDNDFCVCLKESFPNLKTRKLTRVEWGKIRRLMGKPRRCSSAFFEEERSALKQKRQKIRLLQQRKVADVSQFKDLPDEIPLPLVIGTKVTARLRGVHDGLFTGQIDAVDTLNATYRVTFDRTGLGTHTIPDYEVLSNEPHETMPIAAFGQKQRPSRFFMTPPRLHYTPPLQSPIIDNDPLLGQSPWRSKISGSDTETLGGFPVEFLIQVTRLSKILMIKKEHIKKLREMNTEAEKLKSYSMPISIEFQRRYATIVLELEQLNKDLNKVLHKVQQYCYELAPDQGLQPADQPTDMRRRCEEEAQEIVRHANSSTGQPCVENENLTDLISRLTAILLQIKCLAEGGDLNSFEFKSLTDSLNDIKSTIDASNISCFQNNVEIHVAHIQSGLSQMGNLHAFAANNTNRD
notes: LIN9, human, residues 1-542 (LIN9^FL), codon optimised CDS; Subunit of the co-expressed MuvB, MuvB^core and MMB^core complexes; only DIRP and tudor domains are built in PDB 7R1D; source: Hi-5 insect cells co-infected with MuvB baculoviruses; purified as part of the complex (Strep-Tactin, 3C protease, SEC)
B3: LIN37^FL(1–246) (natural protein, human, UniProt Q96GY3 1-246, looked up)
chain: MFPVKVKVEKSELEMAKARNQLDAVLQCLLEKSHMDRERLDEEAGKTPSDTHNKDCSIAATGKRPSARFPHQRRKKRREMDDGLAEGGPQRSNTYVIKLFDRSVDLAQFSENTPLYPICRAWMRNSPSVRERECSPSSPLPPLPEDEEGSEVTNSKSRDVYKLPPPTPPGPPGDACRSRIPSPLQPEMQGTPDDEPSEPEPSPSTLIYRNMQRWKRIRQRWKEASHRNQLRYSESMKILREMYERQ
notes: LIN37, human, residues 1-246 (LIN37^FL), codon optimised CDS; Carries the StrepII x2 tag by which the MuvB complexes were purified; the tag was removed with 3C protease before the final SEC; also called FL-LIN37; source: Hi-5 insect cells co-infected with MuvB baculoviruses; purified as part of the complex (Strep-Tactin, 3C protease, SEC)
B4: LIN54^short(515–749) (domain or fragment, human, UniProt Q6MZP7 515-749, looked up)
chain: SESASRPRKPCNCTKSLCLKLYCDCFANGEFCNNCNCTNCYNNLEHENERQKAIKACLDRNPEAFKPKIGKGKEGESDRRHSKGCNCKRSGCLKNYCECYEAKIMCSSICKCIGCKNFEESPERKTLMHLADAAEVRVQQQTAAKTKLSSQISDLLTRPTPALNSGGGKLPFTFVTKEVAEATCNCLLAQAEQADKKGKSKAAAERMILEEFGRCLMSVINSAGKAKSDPCAMNC
notes: LIN54, human, residues 515-749 (non-conserved N-terminus removed), codon optimised CDS; also called short version of LIN54; source: Hi-5 insect cells co-infected with MuvB baculoviruses; purified as part of the complex (Strep-Tactin, 3C protease, SEC)

How the values were obtained:
[1] = target: B3; assay: mass photometry; purified co-expressed complex diluted from 500 nM just before measurement; 20 mM HEPES pH 8, 150 mM NaCl, 0.5 mM TCEP; details: both partners purified
[2] = target: T1, B-MYB^FL(1–700); assay: cryo-EM structure; MMB^core:NCP167 mixed at 2.5:1, GraFix (glutaraldehyde, sucrose gradient); nucleosome at 3.3 Å, MuvB^HEAD 7.5 Å and MuvB^TAIL 8.7 Å, known structures fitted; details: both partners purified
[3] = target: B2; assay: SEC; subunits co-expressed in Hi-5 cells; complex held on Strep-Tactin by StrepII x2 on LIN37, washed with 1000 mM NaCl, tag cut with 3C, then SEC (S200 or Superose 6) in 20 mM HEPES pH 8, 150 mM NaCl, 0.5 mM TCEP; details: partners not purified
[4] = target: T2, RbBP4^FL(1–425) (human, UniProt Q09028 1-425); assay: cross-linking; DSSO cross-linking mass spectrometry of 28 μM purified MuvB complex, 10 min on ice, monomeric SEC fraction analysed; details: both partners purified
T2 construct: Subunit of the co-expressed MuvB complexes in which the StrepII x2 tag stands on LIN37; source: Hi-5 insect cells co-infected with MuvB baculoviruses; purified as part of the complex (Strep-Tactin, 3C protease, SEC)
T2 sequence (Q09028 whole entry): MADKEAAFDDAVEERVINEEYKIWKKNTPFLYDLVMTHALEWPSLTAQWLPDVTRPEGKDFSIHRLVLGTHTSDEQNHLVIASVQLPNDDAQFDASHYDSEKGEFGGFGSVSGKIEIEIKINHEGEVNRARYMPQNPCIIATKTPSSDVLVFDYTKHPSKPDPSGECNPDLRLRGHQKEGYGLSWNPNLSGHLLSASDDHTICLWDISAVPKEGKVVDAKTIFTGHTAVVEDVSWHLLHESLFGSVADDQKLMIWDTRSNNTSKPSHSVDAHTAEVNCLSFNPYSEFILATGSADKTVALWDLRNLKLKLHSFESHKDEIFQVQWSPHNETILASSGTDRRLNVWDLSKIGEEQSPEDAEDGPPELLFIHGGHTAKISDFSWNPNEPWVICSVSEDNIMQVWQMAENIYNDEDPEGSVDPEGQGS

[5] = target: B2; assay: as above; details: both partners purified

With B1 as the binder, how does the “stoichiometry N” value [1] read?
The value was 1.

Does B2 bind [2]?
Result: binds

And the “stoichiometry N” value [1]?
Its value is 1.

Does B3 bind [3]?
Result: binds

Does B4 bind [4]?
Result: binds

Does B4 bind [5]?
Result: binds

And the “stoichiometry N” value [1]?
The value was 1.
